Test results: patent publication US20050182242A1, “Global analysis of protein activities using proteome chips” (priority 2001, published 2005)

Legend:
PI(4,5)P2 liposomes [1] = experiment: Nitrocellulose membrane assay: adhered PI(4,5)P2 liposomes probed with GST fusion proteins; type: binding; conditions: dilution series, anti-GST antibodies, ECL
Description: A. PI(4,5)P2 liposomes were first adhered to a nitrocellulose membrane, which was blocked by BSA; a dilution series of Rim15p, Eno2p, and Hxk1p, and a GST control were used to probe the membrane. The bound proteins were detected using the anti-GST antibodies and an enhanced chemiluminescence (“ECL”) kit.
Therefore, six proteins, i.e., Rim15p, Eno2p, Hxk1p, Sps1p, Yg1059wp, and Gcn2p, were further tested for phosphoinositol binding using two types of standard assays (Williamson, 2000, Nat. Struct Biol. 7(10):834-7). For Rim15p, Eno2p, and Hxk1p, PI(4,5)P2 liposomes were first adhered to a nitrocellulose membrane, which was then blocked by BSA; different amounts of the GST fusion proteins and a GST control were used to probe the membrane, and bound proteins were detected using anti-GST antibodies. […] We also carried out the reverse assay for four GST fusion proteins, Rim15p, Sps1p, Yg1059wp, and Gcn2p (Guerra et al., 2000, Biosci. Rep. 20: 41). Different amounts of these purified proteins were spotted onto nitrocellulose filters and probed with the six different liposomes (FIG. 5B). The bound liposomes were detected using a horseradish peroxidase (“HRP”)-conjugated streptavidin.

PI(4,5)P2 liposomes [2] = experiment: Yeast proteome chip probed with PI(4,5)P2 liposomes; conditions: liposome binding signal on yeast proteome chip, Cy3-streptavidin detection
Description: (§1) To identify PI-binding proteins in yeast, liposomes were used as probes because the liposome provides the most relevant physiological condition to assay the interactors. Six types of liposomes were used. Each contains phosphatidylcholine (“PC”) with 1% (w/w) N-(biotinoyl)-1,2-dihexadecanoyl-sn-glycero-3-phosphoethanolamine, triethylammonium salt (biotin DHPE). The biotinylated lipid serves as a label that can be detected by Cy3-streptavidin (21). In addition to PC, the five other liposomes contain either 5% (w/w) PI(3)P, PI(4)P, PI(3,4)P2, PI(4,5)P2, or PI(3,4,5)P3 (FIG. 3A).
(§2) The protein-liposome interaction was assayed as follows. Appropriate amounts of each lipid in chloroform were mixed and dried under nitrogen. The lipid mixture was resuspended in TBS buffer by vortexing. The liposomes were created by sonication. Blocked proteome chips were washed three to five times in PBS buffer, and the extra liquid on the glass surface was removed by tapping the slides vertically on a KIMWIPE™. 200 μl of liposome solution was added to the proteome chip and immediately covered by a hydrophobic plastic cover slip (GRACE BIO-LAB™, USA). After trapped air bubbles were removed, the chip was incubated in a humidity chamber at RT for one hour. To remove the cover slip, the chip was immersed into large volume of PBS buffer (50 ml), so that the slip would float away. The chip was then moved to a second PBS bath (>50 ml) and washed 3×5 min with shaking at RT. After removing extra liquid on the surface of the chip, about 100 μl of Cy3 or Cy5 conjugated streptavidin (PIERCE™, USA; 1:2000 to 1:4000 dilution) was added to the surface and covered by a hydrophobic plastic cover slip (GRACE BIO-LABS™, USA). The chip was incubated for greater than 30 min in the dark at RT. The chip was then washed as described above. To completely remove the liquid on the chip, the chip was spun to dryness at 1500-2000 rpm for 5-10 min at RT.
(§3) • 1. S. Fields, Y. Kohara, D. J. Lockhart, Proc. Natl. Acad. Sci. 96, 8825 (1999); A. Goffeau et al., Science 274, 563 (1996). • 2 P. Ross-Macdonald et al., Nature 402, 413 (1999); J. L., DeRisi, V. R. Iyer, P. O. Brown, Science 278, 680 (1997); E. A. Winzeler et al., Science 285, 901 (1999). P. Uetz et al., Nature 403, 623 (2000); T. Ito et al., Proc. Natl. Acad. Sci. USA. 97, 1143 (2000) • 3 H. Zhu, M. Snyder, Curr. Opin. Chem. Biol. 5, 40 (2001). • 4 M. R. Martzen et al., Science 286, 1153 (1999). • 5 H. Zhu et al., Nat. Genet. 26, 283 (2000). • 6 G. MacBeath, S. L. Schreiber, Science 289, 1760 (2000). • 7 A. Caveman, J. Cell Sci. 113, 3543 (2000). • 8 P. Arenkov et al., Anal. Biochem 278, 123 (2000). • 9 D. A. Mitchell, T. K. Marshall, R. J. Deschenes, Yeast 9, 715 (1993). The expression vector pEGH was created by inserting an RGS-HisX6 epitope tag between the GST gene and the polycloning site of pEG(KG). The yeast ORFs were cloned using the strategy described previously (5), except every step was done in a 96-well format. Plasmid DNAs confirmed by DNA sequencing were reintroduced into both yeast (Y258) and E. coli (DH5a). […] 0.1 mM calcium was present in buffers in all subsequent steps. The chip was washed three times with PBS at RT. Cy3-conjugated streptavidin (Jackson IR, USA) (1:5000 dilution) was added to the chip and incubated for 30 min at RT. After extensive washing, the chip was spun dry and scanned using a microarray scanner; the data was subsequently acquired with the GENEPIX™ array densitometry software (Axon, USA). • 12 S. S. Hook, A. R. Means, Annu. Rev. Pharmacol. Toxicol.41, 471 (2001). • 13 M. S. Cyert, R. Kunisawa, D. Kaim, J. Thorner, Proc. Natl. Acad. Sci. USA 88, 7376 (1991). • 14 D. A. Stirling, K. A. Welch, M. J. Stark, EMBO J. 13, 4329 (1994). • 15 F. Bohl, Kruse, EMBO J. 19, 5514 (2000); E. Bertrand et al., Mol. Cell 2, 437 (1998). • 16 D. C. Winter, E. Y. Choe, R. Li, Proc. Nat. Acad Sci. USA 96, 7288 (1999). • 17 C.

PI(4)P liposomes = experiment: Yeast proteome chip probed with PI(4)P liposomes; conditions: liposome binding signal on yeast proteome chip, Cy3-streptavidin detection
Description: as §1, §2
as §3, with “Pharmacol. Toxicol.41, 471 (2001). • 13 M. S. Cyert, R. Kunisawa, D. Kaim, J. Thorner, Proc. Natl. Acad. Sci. USA 88, 7376 (1991). • 14 D. A. Stirling, K. A. Welch, M. J. Stark, EMBO J. 13, 4329 (1994). • 15 F. Bohl, Kruse, EMBO J. 19, 5514 (2000); E. Bertrand et al., Mol. Cell 2, 437 (1998). • 16 D. C. Winter, E. Y. Choe, R. Li, Proc. Nat. Acad Sci. USA 96, 7288 (1999). • 17 C.” left out

PI(3,4,5)P3 liposomes = experiment: Yeast proteome chip probed with PI(3,4,5)P3 liposomes; conditions: liposome binding signal on yeast proteome chip, Cy3-streptavidin detection
Description: as §1, §2, §3

Which “binding to PI(4,5)P2 liposomes on membrane” value (PI(4,5)P2 liposomes [1]) does the source give for “RIM15: yeast protein kinase, regulator of glucose metabolism, GST-HisX6 fusion” here?
Its value is “tightly bound PI(4,5)P2”.

What about the “PI(4, 5)P2” value (PI(4,5)P2 liposomes [2]) of the same substance?
The value was 687.19.

And the “PI(4)P” value (PI(4)P liposomes)?
Its value is 2349.00.

What about the “PI(3, 4, 5)P3” value (PI(3,4,5)P3 liposomes) of the same substance?
Its value is 1219.28.
